# US20200291075A1 (TRUSTEES OF PRINCETON UNIVERSITY, published 2020)
# Where a chain is given by its changes, count along the chain named. Names and notes keep the numbering of the source. Values joined by “and” are separate entries in the source; they are usually repeats but may differ in a detail not shown here. Identical values can stand only once. Like-named read-outs stand apart in the source and are kept apart here.
# T1: YFP-SH2 (human, UniProt P00519 112-232)
# T1 construct: domain: SH2 domain; also called SH2-tagged YFP; EZ-L703
# T1 sequence (looked up): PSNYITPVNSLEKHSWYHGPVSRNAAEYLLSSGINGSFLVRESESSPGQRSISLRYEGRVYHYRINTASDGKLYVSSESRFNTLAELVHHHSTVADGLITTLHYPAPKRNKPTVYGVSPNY
# T2: SH2-PDC1 (human; Saccharomyces cerevisiae)
# T2 construct: No His tag; also called SH2-tagged Pdc1p; EZ-L886
# T2 chain: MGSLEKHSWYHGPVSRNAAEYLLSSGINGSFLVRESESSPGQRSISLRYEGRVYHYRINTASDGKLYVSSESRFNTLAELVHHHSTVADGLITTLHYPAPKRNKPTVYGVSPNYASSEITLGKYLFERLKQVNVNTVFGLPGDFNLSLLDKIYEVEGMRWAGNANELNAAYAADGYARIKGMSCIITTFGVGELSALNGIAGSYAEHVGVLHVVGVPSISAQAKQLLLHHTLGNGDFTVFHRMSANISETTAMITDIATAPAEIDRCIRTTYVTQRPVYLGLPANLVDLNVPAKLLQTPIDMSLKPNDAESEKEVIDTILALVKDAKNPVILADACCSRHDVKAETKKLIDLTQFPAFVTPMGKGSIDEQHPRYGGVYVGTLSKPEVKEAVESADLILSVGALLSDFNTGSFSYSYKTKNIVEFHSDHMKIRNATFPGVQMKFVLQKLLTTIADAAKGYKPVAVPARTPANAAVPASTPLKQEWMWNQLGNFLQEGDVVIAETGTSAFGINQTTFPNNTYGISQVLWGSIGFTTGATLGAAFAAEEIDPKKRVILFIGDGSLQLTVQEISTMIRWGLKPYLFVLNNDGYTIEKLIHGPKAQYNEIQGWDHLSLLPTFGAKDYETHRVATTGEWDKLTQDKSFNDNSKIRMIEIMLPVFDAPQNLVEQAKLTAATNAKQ
# T3: His6-YFP-SH2 (human, UniProt P00519 112-232)
# T3 construct: domain: SH2 domain; also called 6xHis-YFP-protein fusion
# T3 sequence (looked up): T1 sequence (looked up)
# B1: OptoMBV416L (designed binder)
# chain: HHHHHHGSGSGSDQEAKPSTEDLGDKKEGEYIKLKVIGQDSSEIHFKVKMTTHLKKLKESYCQRQGVPMNSLRFLFEGQRIADNHTPKELGMEEEDVIEVYQEQTGGHMASKGSSVSSVPTKLEVVAATPTSLLISWDAPMSSSSVYYYRITYGETGGNSPVQEFTVPYSGLERIEKNFLITDPRLPDNPIIFASDSFLQLTEYSREEILGRNCRFLQGPETDRATVRKIRDAIDNQTEVTVQLINYTKSGKKFWNLFHLQPMRDQKGDVQYFIGVQLDGTEHVRDAAEREGVMLIKKTAENIDEAAGSSTATISGLSPGVDYTITVYAWGEDSAGYMFMYSPISINYRTC
# notes: T0006 lists the V416L plasmid with His6-SUMO; also called OptoMBV416L 1; OptoMBV416L 2
# B2: OptoMBV416I_G528A_N538E (His6-SUMO tagged) (designed binder)
# chain: B1 chain with L180I, G292A, N302E
# notes: also called OptoMBTriple
# B3: HA4-AsLOV2 chimera, SG65 insertion (designed binder)
# chain: GSSVSSVPTKLEVVAATPTSLLISWDAPMSSSSVYYYRITYGETGGNSPVQEFTVPYSSSTATISGLERIEKNFVITDPRLPDNPIIFASDSFLQLTEYSREEILGRNCRFLQGPETDRATVRKIRDAIDNQTEVTVQLINYTKSGKKFWNLFHLQPMRDQKGDVQYFIGVQLDGTEHVRDAAEREGVMLIKKTAENIDEAAGGLSPGVDYTITVYAWGEDSAGYMFMYSPISINYRTC
# B4: HA4-AsLOV2 chimera, SA84 insertion (designed binder)
# chain: GSSVSSVPTKLEVVAATPTSLLISWDAPMSSSSVYYYRITYGETGGNSPVQEFTVPYSSSTATISGLSPGVDYTITVYAWGEDSGLERIEKNFVITDPRLPDNPIIFASDSFLQLTEYSREEILGRNCRFLQGPETDRATVRKIRDAIDNQTEVTVQLINYTKSGKKFWNLFHLQPMRDQKGDVQYFIGVQLDGTEHVRDAAEREGVMLIKKTAENIDEAAGAGYMFMYSPISINYRTC
# B5: HA4-AsLOV2 chimera, SS58 insertion, untagged (OptoMB) (designed binder)
# chain: GSSVSSVPTKLEVVAATPTSLLISWDAPMSSSSVYYYRITYGETGGNSPVQEFTVPYSGLERIEKNFVITDPRLPDNPIIFASDSFLQLTEYSREEILGRNCRFLQGPETDRATVRKIRDAIDNQTEVTVQLINYTKSGKKFWNLFHLQPMRDQKGDVQYFIGVQLDGTEHVRDAAEREGVMLIKKTAENIDEAAGSSTATISGLSPGVDYTITVYAWGEDSAGYMFMYSPISINYRTC
# notes: Used as crude E. coli extract in the pull-down screen; also called alphaSH2 OptoMonobody; EZ-L706
# B6: HA4-AsLOV2 chimera, NS47 insertion (designed binder)
# chain: GSSVSSVPTKLEVVAATPTSLLISWDAPMSSSSVYYYRITYGETGGNGLERIEKNFVITDPRLPDNPIIFASDSFLQLTEYSREEILGRNCRFLQGPETDRATVRKIRDAIDNQTEVTVQLINYTKSGKKFWNLFHLQPMRDQKGDVQYFIGVQLDGTEHVRDAAEREGVMLIKKTAENIDEAAGSPVQEFTVPYSSSTATISGLSPGVDYTITVYAWGEDSAGYMFMYSPISINYRTC
# B7: Monobody HA4 (His6-tagged, purified) (designed binder)
# chain: HHHHHHSSGENLYFQGHASGSSVSSVPTKLEVVAATPTSLLISWDAPMSSSSVYYYRITYGETGGNSPVQEFTVPYSSSTATISGLSPGVDYTITVYAWGEDSAGYMFMYSPISINYRTC
# B8: OptoMB (His6-tagged, wild-type AsLOV2) (designed binder)
# chain: HHHHHHSSGENLYFQGHASGSSVSSVPTKLEVVAATPTSLLISWDAPMSSSSVYYYRITYGETGGNSPVQEFTVPYSGLERIEKNFVITDPRLPDNPIIFASDSFLQLTEYSREEILGRNCRFLQGPETDRATVRKIRDAIDNQTEVTVQLINYTKSGKKFWNLFHLQPMRDQKGDVQYFIGVQLDGTEHVRDAAEREGVMLIKKTAENIDEAAGSSTATISGLSPGVDYTITVYAWGEDSAGYMFMYSPISINYRTC
# notes: also called OptoMB 1; OptoMB 2
# B9: OptoMBC450V (designed binder)
# chain: B8 chain with C121V
# notes: also called OptoMBC450V 1; OptoMBC450V 2
# Assays:
# [1] = molecular target: mCherry (purified, His-tag cleaved off); test: OCTET BLI; His-tagged nanobody on Ni-NTA biosensor, tag-free mCherry in solution
# [2] = molecular target: mCherry (purified, His-tag cleaved off); test: BLI (Octet RED96e); His-tagged nanobody on Ni-NTA sensor, tagless mCherry in solution; no illumination
# iLID-CAAX [3] = test: cytosol-to-membrane translocation in NIH3T3 cells
# iLID-CAAX [4] = test: cytosol-to-membrane redistribution in NIH3T3 cells
# YFP-SH2 [5] = molecular target: T1, YFP-SH2; test: BLI; Kd of OptoMBV416L (light) against Kd of OptoMBC450V (dark)
# Method: (§1) Ni-NTA sensors (ForteBio) were first equilibrated using Buffer A for 10 minutes prior the measurement. A volume of 200 μL of Buffer A or protein solutions (previously dialyzed with Buffer A when needed) was added to clear, 96-well plates. During the experimental run, the Ni-NTA sensors were first immersed in Buffer A to record the baseline. […] The sensors were then transferred back into Buffer A to remove unbound protein. […] To measure the unbinding rate constant (koff), the sensors were then moved to wells containing Buffer A to trigger dissociation of YFP-SH2. To measure binding kinetics of the light state, the lid of the Octet remained open during the measurement and a blue LED panel was held above the 96-well plate, maintaining constant blue illumination for the duration of the experiment. […] The raw binding and unbinding data were simultaneously fit to models of the binding and unbinding reactions:
# YFP-SH2 [6] = molecular target: T1, YFP-SH2; test: BLI; binder on Ni-NTA sensor, YFP-SH2 in solution; lit conformation, 450 nm light
# Method: as §1
# YFP-SH2 [7] = molecular target: T1, YFP-SH2; test: BLI; binder on Ni-NTA sensor, YFP-SH2 in solution; lit conformation, ambient light
# Method: as §1
# YFP-SH2 [8] = molecular target: T1, YFP-SH2; test: BLI; His-tagged binder on Ni-NTA sensor, YFP-SH2 in solution; light conformation; average of three measurements
# Method: as §1
# YFP-SH2 [9] = molecular target: T1, YFP-SH2; test: LCAC in batch, Talon resin; share of the resin-bound target eluted by blue light
# Method: (§2) After elution, beads were washed with imidazole to recover any remaining protein bound to the beads in order to estimate the capacity and yields of the resin.
# (§3) The Resin was rotated in 50 mL conical tubes (covered with aluminum foil) at room temperature for 20 minutes and then poured in 20 mL BioRad glass Econo-Columns and washed with Buffer A (50 column volumes). […] The mixture was then vertically rotated gently for 45 minutes in 15 ml conical tubes.
# SH2-PDC1 [10] = molecular target: T2, SH2-PDC1; test: as above
# Method: as §2, §3
# YFP-SH2 [11] = molecular target: T1, YFP-SH2; test: BLI; SUMO-tagged binder on Ni-NTA sensor, YFP-SH2 in solution; lit conformation, ambient light
# Method: as §1
# YFP-SH2 [12] = molecular target: T1, YFP-SH2; test: LCAC in batch; His-tag bound OptoMB on Talon cobalt resin, target from crude E. coli lysate bound in the dark
# Method: as §2, §3
# SH2-PDC1 [13] = molecular target: T2, SH2-PDC1; test: as above
# Method: as §2, §3
# His6-YFP-SH2 [14] = molecular target: T3, His6-YFP-SH2; test: pull-down on Co2+ agarose beads with His6-YFP-SH2, crude chimera lysate, light or dark, SDS-PAGE
# Method: (§4) The His6-YFP-SH2 supernatant was then mixed with 4.5 mL of a 50% suspension of Co-charged agarose resin (Talo®), previously equilibrated in Binding buffer, and incubated at 4° C., rocking for 45 min. The suspension was sedimented by gravity and the supernatant discarded. The beads were then thoroughly washed with Binding buffer with approximately 50 times the resin or column volume. The beads (now with His6-YFP-SH2 bound) were then finally resuspended in Binding buffer to a total volume of 13.5 mL. The bead suspension was equally divided into 9 conical tubes of 15 mL (having each 1.5 mL of the bead suspension). Four of these tubes were used for experiments under blue light with LED panels (450 nm and intensity of 45 μmol/m²/s) while the other four were used for experiments in the dark (wrapped in aluminum foil). Experiments were performed in a dark room and red light was used occasionally for visualization purposes. The remaining tube was left as a control for His6-YFP-SH2 binding. Samples of 2.5 mL of bacterial clarified lysates containing either the monobody HA4 supernatant or each one of the chimeras were added to separate tubes of resin. The mixtures were then incubated for 45 minutes (at 4° C. and constant vertical rotation of 20 rpm) under blue light or dark conditions. […]
# His6-YFP-SH2 [15] = molecular target: T3, His6-YFP-SH2; test: as above; remark: listed apart in the source
# Method: as §4
# His6-YFP-SH2 [16] = molecular target: T3, His6-YFP-SH2; test: pull-down on His6-YFP-SH2 cobalt beads, SDS-PAGE densitometry
# Method: as §4
# YFP-SH2 [17] = molecular target: T1, YFP-SH2; test: BLI; binder on Ni-NTA sensor, YFP-SH2 in solution; ambient light
# YFP-SH2 [18] = molecular target: T1, YFP-SH2; test: BLI (Octet RED96e); His-tagged binder on Ni-NTA sensor, YFP-SH2 in solution
# YFP-SH2 [19] = molecular target: T1, YFP-SH2; test: BLI; lit-state against dark-state OptoMB variants
# Method: as §1
# YFP-SH2 [20] = molecular target: T1, YFP-SH2; test: BLI; His-tagged binder on Ni-NTA sensor, YFP-SH2 in solution; light conformation
# Method: as §1
# YFP-SH2 [21] = molecular target: T1, YFP-SH2; test: BLI; binder on Ni-NTA sensor, YFP-SH2 in solution; dark conformation, 450 nm light
# Method: as §1
# YFP-SH2 [22] = molecular target: T1, YFP-SH2; test: BLI; binder on Ni-NTA sensor, YFP-SH2 in solution; dark conformation, ambient light
# Method: as §1
# YFP-SH2 [23] = molecular target: T1, YFP-SH2; test: BLI; His-tagged binder on Ni-NTA sensor, YFP-SH2 in solution; dark conformation; average of three measurements
# Method: as §1
molecule,measurement,setting,value
"LaM8 anti-mCherry nanobody (His-tagged, purified) (VHH)",Kd,[1],322 nM
same,koff,[1],0.02 s⁻¹
same,kon,[1],75200 M⁻¹ s⁻¹
same,Kd,[2],230 nM
same,koff,[2],0.018 s⁻¹
same,kon,[2],76000 M⁻¹ s⁻¹
BFP-SSPB-SOScat,change in cytosolic intensity between light and dark,iLID-CAAX [3],60%
same,change in cytosolic intensity between light conditions,iLID-CAAX [4],60%
B1,"fold change in binding affinity, light against dark",YFP-SH2 [5],~330 fold
same,Kd,YFP-SH2 [6],60 µM and 42 µM
same,koff,YFP-SH2 [6],0.2 s⁻¹ and 0.24 s⁻¹
same,kon,YFP-SH2 [6],3300 M⁻¹ s⁻¹ and 5800 M⁻¹ s⁻¹
same,Kd,YFP-SH2 [7],87 µM
same,koff,YFP-SH2 [7],0.25 s⁻¹
same,kon,YFP-SH2 [7],2900 M⁻¹ s⁻¹
same,Kd,YFP-SH2 [8],63 µM
same,koff,YFP-SH2 [8],0.23 s⁻¹
same,kon,YFP-SH2 [8],4000 M⁻¹ s⁻¹
B2,Yield (% of recovery from the resin),YFP-SH2 [9],29.8%
same,Yield (% of recovery from the resin),SH2-PDC1 [10],39%
same,Kd,YFP-SH2 [11],> 100 µM
same,koff,YFP-SH2 [11],0.1 s⁻¹ and 0.13 s⁻¹
same,kon,YFP-SH2 [11],< 1000 M⁻¹ s⁻¹
same,Resin Capacity,YFP-SH2 [12],4.5 mg/mL
same,Resin Capacity,SH2-PDC1 [13],5.24 mg/mL
B3,binding result,His6-YFP-SH2 [14],no binding
B4,binding result,His6-YFP-SH2 [15],no binding
B5,"band intensity, dark against light",His6-YFP-SH2 [16],~2.1 fold
B6,binding result,His6-YFP-SH2 [15],no binding
B7,Kd,YFP-SH2 [17],280 nM
same,koff,YFP-SH2 [17],0.0145 s⁻¹
same,kon,YFP-SH2 [17],51000 M⁻¹ s⁻¹
same,Kd,YFP-SH2 [18],230 nM
same,koff,YFP-SH2 [18],0.0145 s⁻¹
same,kon,YFP-SH2 [18],63100 M⁻¹ s⁻¹
B8,"fold change of kon and koff, light against dark",YFP-SH2 [19],~20 fold
same,koff,YFP-SH2 [20],0.21 s⁻¹
same,kon,YFP-SH2 [20],< 1000 M⁻¹ s⁻¹
same,Yield (% of recovery from the resin),YFP-SH2 [9],17.8%
same,Kd,YFP-SH2 [6],> 100 µM
same,koff,YFP-SH2 [6],0.21 s⁻¹
same,kon,YFP-SH2 [6],< 1000 M⁻¹ s⁻¹
same,Kd,YFP-SH2 [7],> 100 µM
same,koff,YFP-SH2 [7],0.34 s⁻¹
same,kon,YFP-SH2 [7],< 1000 M⁻¹ s⁻¹
same,Resin Capacity,YFP-SH2 [12],5.85 mg/mL
B9,Kd,YFP-SH2 [21],270 nM
same,koff,YFP-SH2 [21],0.013 s⁻¹
same,kon,YFP-SH2 [21],48000 M⁻¹ s⁻¹
same,koff,YFP-SH2 [22],0.006 s⁻¹ and 0.013 s⁻¹
same,kon,YFP-SH2 [22],110000 M⁻¹ s⁻¹ and 56000 M⁻¹ s⁻¹
same,Kd,YFP-SH2 [23],190 nM
same,koff,YFP-SH2 [23],0.01 s⁻¹
same,kon,YFP-SH2 [23],71000 M⁻¹ s⁻¹
